Patent US20230047413A1 (Janssen / Centocor, published 2023)
Where “and” joins values, the source holds several entries; their conditions need not be identical. Equal values may be shown once.

Key:
Peptide-4 [1] = target: T1, Peptide-4 (human, phosphoserine 210, phosphothreonine 217 (tau 2N4R numbering); SCBiot and dPEG4 at the N-terminus; amide at the C-terminus); assay: SPR ProteOn, peptide captured, Fab as analyte; Peptide-4, phosphorylated at 210/217
Method: (§1) The binding affinity of PT3 Fab towards each of the fourteen tau phosphopeptides shown in Table 6 was assessed by surface plasmon resonance (SPR) using a Bio-Rad ProteOn XPR36. Peptides were synthesized by standard chemical methods (New England Peptide) with short-chain biotin and a PEG4 moiety at the N-terminus. Biotinylated peptide was captured on a neutravidin-coated NLC biosensor chip and PT3 Fab was flowed over the surface to measure kinetic parameters.
(§2) All experiments were performed at 25° C. using phosphate buffered saline, pH 7.4, 0.005% Tween 20 (PBST) as both running buffer and sample dilution buffer. Prior to running samples, the NLC chip was conditioned by running PBST over the chip surface for 1 h. Approximately 5-10 RU of peptide was captured on the chip surface by diluting peptide to 10 ng/mL in PBST and injecting over the flow channels at 30 μL/min for 100 s. Serial dilutions of PT3 Fab (1.1-90 nM) were analyzed and, with the exception of Peptide-8, each concentration was measured in duplicate. After capture of peptides, the antibody titration was injected at 60 μL/min for 3 minutes (association phase), followed by 300 s of buffer only (dissociation phase).
(§3) The data were double referenced by subtraction of the interspot response and the curves generated by the buffer-only injection. […] The data were analyzed using a simple Langmuir 1:1 binding model.

Peptide-7 [2] = target: T2, Peptide-7 (human, phosphothreonine 212, phosphoserine 214 (tau 2N4R numbering); SCBiot and dPEG4 at the N-terminus; amide at the C-terminus); assay: SPR ProteOn, peptide captured, Fab as analyte; range of n=2; Peptide-7 (pT212/pS214); lower end of n=2 range
T2 sequence (peptide, as listed by the source): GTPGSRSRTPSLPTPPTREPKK
Method: as §1, §2, §3

Peptide-2 [3] = target: T3, Peptide-2 (human, phosphothreonine 212, phosphothreonine 217 (tau 2N4R numbering); short chain biotin (SCBiot) and dPEG4 at the N-terminus; amide at the C-terminus); assay: SPR ProteOn, peptide captured, Fab as analyte; range of n=2
T3 construct: also called pT212/pT217-tau peptide (Peptide-2)
Method: A subset of HFA-PT3 monoclonal antibody variants, selected based on biophysical characterization and ELISA binding to PHF, were analyzed by Surface Plasmon Resonance (SPR) with a ProteOn XPR36 for binding to the following phosphopeptides: pT212/pT217-tau peptide (Peptide-2, SEQ ID NO: 48) and pT212-tau peptide (Peptide-8, SEQ ID NO: 54). All experiments were performed at 25° C. using PBST, pH 7.4, (Bio-Rad Cat#176-2720) as both running buffer and sample dilution buffer.
Fab/peptide binding. Biotinylated peptide was captured on a neutravidin-coated NLC biosensor chip pre-conditioned with PBST, and Fab was flowed over the surface to measure kinetic parameters. Approximately 5-10 RU of peptide was captured on the chip surface by diluting peptide to 10 ng/mL in PBST and injecting over the flow channels at 30 μL/min for 100 s. Serial dilutions of PT3 Fab (1.1 nM to 90 nM) were injected at 60 μL/min for 3 minutes (association phase), followed by 300 s of buffer only (dissociation phase).
Data were double referenced by subtraction of the interspot response, and the curves generated by the buffer only injection. The chip surface was regenerated with 0.85% phosphoric acid, followed by PBST injection before the next antibody titration injection. Data processing and analysis were performed using instrument software. The data were fit using a simple Langmuir 1:1 binding model.

Peptide-7 [4] = target: T2, Peptide-7; assay: SPR ProteOn, peptide captured, Fab as analyte; range of n=2; lower end of n=2 range
Method: as §1, §2
(§4) The data were double referenced by subtraction of the interspot response and the curves generated by the buffer-only injection. The chip surface was regenerated using a single injection of 0.85% phosphoric acid at 30 μL/min for 100 s contact time, followed by four injections of running buffer before the next antibody titration injection. The data processing and kinetic analysis were done using the instrument software. The data were analyzed using a simple Langmuir 1:1 binding model.

Peptide-6 = Peptide-6 (human, phosphothreonine 217 (tau 2N4R numbering); SCBiot and dPEG4 at the N-terminus; amide at the C-terminus); assay: as above
Method: as §1, §2, §4

Peptide-5 [5] = target: T4, Peptide-5 (human, phosphoserine 210, phosphoserine 214, phosphothreonine 217 (tau 2N4R numbering); SCBiot and dPEG4 at the N-terminus; amide at the C-terminus); assay: as above
Method: as §1, §2, §4

Peptide-2 [6] = target: T3, Peptide-2; assay: as above
Method: as §1, §2, §4

Peptide-4 [7] = target: T1, Peptide-4; assay: as above
Method: as §1, §2, §4

Peptide-5 [8] = target: T4, Peptide-5; assay: SPR ProteOn, peptide captured, Fab as analyte; range of n=2; Peptide-5 (pS210/pS214/pT217); upper end of n=2 range
Method: as §1, §2, §3

Peptide-7 [9] = target: T2, Peptide-7; assay: SPR ProteOn, peptide captured, Fab as analyte; range of n=2; Peptide-7 (pT212/pS214); upper end of n=2 range
Method: as §1, §2, §3

Peptide-1 = target: T5, Peptide-1 (human, phosphothreonine 212, phosphoserine 214, phosphothreonine 217 (tau 2N4R numbering); short chain biotin (SCBiot) and dPEG4 at the N-terminus; amide at the C-terminus); assay: SPR ProteOn, peptide captured, Fab as analyte; range of n=2; Peptide-1 (pT212/pS214/pT217); upper end of n=2 range
T5 construct: also called tau peptide phosphorylated at T212/S214/T217
Method: as §1, §2, §3

B1: PT3 Fab (B187) (Fab, V domains shown)
VH: EVKLVESGGDLVKPGGSLKLSCAASGFTFSSYAMSWVRQNPEKRLEWVASISKGGNTYYPNSVKGRFTISRDNARNILYLQMSSLRSEDTALYYCARGWGDYGWFAYWGQVTLVTVSA
VL: DIKMTQSPSSMYASLGERVTITCKASQDINRYLNWFQQKPGKSPKTLIYRANRLLDGVPSRFSGSGSGQDYSLTISSLDYEDMGIYYCLQYDEFPLTFGDGTKLELK
notes: Chimeric Fab: mouse variable regions, human IgG1/kappa constant region, 6xHis tag at the C-terminus of the heavy chain; also called mouse parental Fab of PT3
Peptide-4 [1]
  Kd: 6.6 nM
Peptide-7 [2]
  Kd: 11.3 to 15.7 nM
Peptide-2 [3]
  koff: 4.93e-05 s⁻¹ and 7.84e-05 s⁻¹
  kon: 491000 M⁻¹ s⁻¹ and 1.06e+06 M⁻¹ s⁻¹
Peptide-7 [4]
  koff: 0.00549 s⁻¹
  kon: 357000 M⁻¹ s⁻¹
Peptide-6
  koff: 0.00606 s⁻¹
  kon: 524000 M⁻¹ s⁻¹
Peptide-5 [5]
  koff: 0.00569 s⁻¹
  kon: 545000 M⁻¹ s⁻¹
Peptide-2 [6]
  kon: 546000 M⁻¹ s⁻¹
Peptide-4 [7]
  koff: 0.00619 s⁻¹
  kon: 922000 M⁻¹ s⁻¹
Peptide-5 [8]
  Kd: 6.6 to 10.8 nM
Peptide-7 [9]
  Kd: 11.3 to 15.7 nM
Peptide-1
  Kd: 0.14 to 0.38 nM
